Experiment [1] concerns the target Recombinant Human IL-13 (human, UniProt P35225 35-146, limits assumed). Kind of experiment: cell-based or functional assay.
Target sequence in this assay (P35225 35-146 limits assumed): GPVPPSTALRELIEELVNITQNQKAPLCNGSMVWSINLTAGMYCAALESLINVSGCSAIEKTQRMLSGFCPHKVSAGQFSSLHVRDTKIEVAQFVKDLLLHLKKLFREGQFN
Experiment [2] shares this target. Nature of the experiment: Biacore SPR. An outline of the steps:
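Kinetic constants come from global 1:1 model fitting (Rmax local) at 0.8–100 nM antigen. Flow was 50 μl/min with 5 min association and 10 min dissociation. Capture used goat anti-mouse IgG Fcγ on a CM5 chip in HBS-EP+ at 25 °C.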
Target sequence in this assay (P35225 35-146 limits assumed): as above
(In general: In SPR one partner is held on a chip, and binding of the other changes the refractive index at the surface.)

Substitutions are numbered along the chain they refer to.

In general, Kd refers to a measure of binding affinity in units of concentration. In general, koff refers to the rate constant with which the complex falls apart. What is called kon is the second-order rate constant of association.

B1: AB398 (antibody, V domains shown)
VH: EVQLVQSGAEVKKPGASVKVSCKASGYTFTTYGVSWVRQAPGQGLEWMGEIYPGNYNTYYNEKFRGRVTMTTDTSTSTAYMELRSLRSDDTAVYYCARWRTSYFSDYGYFDYWGQGTTVTVSS
VL: DVVMTQSPLSLPVTLGQPASISCRSSQSLVHSHGNTYLHWYQQRPGQSPRLLIYTVSNRFSGVPDRFSGSGSGTDFTLKISRVEAEDVGVYYCSQSTHVPYTFGGGTKVEIKR
Regarding B1, in the experiment with Recombinant Human IL-13 [1], the “IL-13 Neutralization Assay IC50” value came to 0.068 nM.

B2: DVD2738 (bispecific antibody, human IgG1, kappa)
heavy: not shown
light: DIQMTQSPSSLSASVGDRVTISCRASQDIRNYLNWYQQKPGKAPKLLIFYTSKLHSGVPSRFSGSGSGTDYTLTISSLQPEDIATYYCQQGLTPPLTFGGGTKVEIKRGGSGGGGSGDIQMTQSPSSLSASVGDRVTITCKASQLVSSAVAWYQQKPGKAPKLLIYWASTLHTGVPSRFSGSGSGTDFTLTISSLQPEDFATYYCQQHYRTPFTFGQGTKLEIKRTVAAPSVFIFPPSDEQLKSGTASVVCLLNNFYPREAKVQWKVDNALQSGNSQESVTEQDSKDSTYSLSSTLTLSKADYEKHKVYACEVTHQGLSSPVTKSFNRGEC
Consider B2, for which the “IL-13 Neutralization Assay IC50” value in the experiment with Recombinant Human IL-13 [1] was 0.149 nM.

B3: DVD3159 (bispecific antibody, IgG1)
VH: EVQLVQSGAEVKKPGASVKVSCKASGYTFTSYWMHWVRQAPGQGLEWIGNINPKGGSNIYNEKFQGRVTMTRDTSISTAYMELSRLRSDDTAVYYCARLDYFGDSFDLWGQGTTVTVSSASTKGPEVQLVESGGGLVQPGGSLRLSCAASGFTFSNYGVEWVRQAPGKGLEWVSGIWADGSTHYADTVKSRFTISRDNSKNTLYLQMNSLRAEDTAVYYCAREWQHGPVAYWGQGTLVTVSS
VL: DIQMTQSPSSLSASVGDRVTITCRASQGIRNYLNWYQQKPGKAPKLLIYYASNLEVGVPSRFSGSGSGTDYTLTISSLQPEDFATYYCQQDNRFPYTFGGGTKVEIKRTVAAPDIQMTQSPSSLSASVGDRVTITCKASQLVSSAVAWYQQKPGKAPKLLIYWASTLHTGVPSRFSGSGSGTDFTLTISSLQPEDFATYYCQQHYRTPFTFGQGTKLEIKR
notes: DVD-Ig; wt hIgG1 + kappa constants
For B3, in the experiment with Recombinant Human IL-13 [2], the Kd stood at 0.039 nM, the koff turned out to be 5.4e-05 s⁻¹ and the kon came to 1.4e+06 M⁻¹ s⁻¹.

B4: DVD3147 (bispecific antibody, IgG1)
VH: EVQLVESGGGLVQPGGSLRLSCAASGFTFSNYGVTWVRQAPGKGLEWVSMIWADGSTHYASSVKGRFTISRDNSKNTLYLQMNSLRAEDTAVYYCAREWQHGPVAYWGQGTLVTVSSASTKGPSVFPLAPEVQLVQSGAEVKKPGASVKVSCKASGYTFTSYWMHWVRQAPGQGLEWIGNINPKGGSNIYNEKFQGRVTMTRDTSISTAYMELSRLRSDDTAVYYCARLDYFGDSFDLWGQGTTVTVSS
VL: DIQMTQSPSSLSASVGDRVTITCRASQLVSSAVAWYQQKPGKAPKLLIYWASARHTGVPSRFSGSGSGTDFTLTISSLQPEDFATYYCQQHYKTPFTFGQGTKLEIKRTVAAPDIQMTQSPSSLSASVGDRVTITCRASQGIRNYLNWYQQKPGKAPKLLIYYASNLEVGVPSRFSGSGSGTDYTLTISSLQPEDFATYYCQQDNRFPYTFGGGTKVEIKR
notes: as for B3
As to B4, in the experiment with Recombinant Human IL-13 [2], the dissociation constant (Kd) was under 0.0077 nM, the dissociation rate constant (koff) was under 1e-06 s⁻¹ and the kon was determined as 130000 M⁻¹ s⁻¹.

B5: DVD3157 (bispecific antibody, IgG1)
VH: B4 VH with T35E, M50G, S61D, S62T, G65S
VL: B4 VL with R24K, A53T, R54L, K93R
notes: as for B3
Regarding B5, in the experiment with Recombinant Human IL-13 [2], the dissociation constant Kd was 0.0095 nM, the off-rate constant (koff) amounted to 1.1e-06 s⁻¹ and the on-rate constant (kon) was determined as 110000 M⁻¹ s⁻¹.

B6: AB397 (antibody, V domains shown)
VH: EVTLRESGPGLVKPTQTLTLTCTLYGFSLSTSDMGVDWIRQPPGKGLEWLAHIWWDDVKRYNPALKSRLTISKDTSKNQVVLKLTSVDPVDTATYYCARTVSSGYIYYAMDYWGQGTLVTVSS
VL: DIQMTQSPSSLSASVGDRVTISCRASQDIRNYLNWYQQKPGKAPKLLIFYTSKLHSGVPSRFSGSGSGTDYTLTISSLQPEDIATYYCQQGLTPPLTFGGGTKVEIKR
For the molecule B6, in the experiment with Recombinant Human IL-13 [1], the “IL-13 Neutralization Assay IC50” value amounted to 0.066 nM.

B7: DVD2692 (bispecific antibody, human IgG1, kappa)
heavy: not shown
light: DIQMTQSPSSLSASVGDRVTISCRASQDIRNYLNWYQQKPGKAPKLLIFYTSKLHSGVPSRFSGSGSGTDYTLTISSLQPEDIATYYCQQGLTPPLTFGGGTKVEIKRTVAAPDIQMTQSPSSLSASVGDRVTITCRASQLVSSAVAWYQQKPGKAPKLLIYWASARHTGVPSRFSGSGSGTDFTLTISSLQPEDFATYYCQQHYKTPFTFGQGTKLEIKRTVAAPSVFIFPPSDEQLKSGTASVVCLLNNFYPREAKVQWKVDNALQSGNSQESVTEQDSKDSTYSLSSTLTLSKADYEKHKVYACEVTHQGLSSPVTKSFNRGEC
Turning to B7, in the experiment with Recombinant Human IL-13 [1], the “IL-13 Neutralization Assay IC50” value is 0.131 nM.

B8: DVD2742 (bispecific antibody, human IgG1, kappa)
heavy: not shown
light: B7 light with R137K, A166T, R167L, K206R
For B8, the “IL-13 Neutralization Assay IC50” value in the experiment with Recombinant Human IL-13 [1] was 0.064 nM.

B9: DVD2739 (bispecific antibody, human IgG1, kappa)
heavy: not shown
light: B7 light with R137K, A166T, R167L, K206R
As to B9, the “IL-13 Neutralization Assay IC50” value with Recombinant Human IL-13 [1] came out at 0.132 nM.

B10: DVD2789 (bispecific antibody, human IgG1, kappa)
heavy: not shown
light: DIQMTQSPSSLSASVGDRVTISCRASQDIRNYLNWYQQKPGKAPKLLIFYTSKLHSGVPSRFSGSGSGTDYTLTISSLQPEDIATYYCQQGLTPPLTFGGGTKVEIKRTVAAPDIQMTQSPSSLSASVGDRVTITCRASQDISQYLNWYQQKPGKAPKLLIYYTSRLQSGVPSRFSGSGSGTDFTLTISSLQPEDFATYFCQQGNTWPPTFGQGTKLEIKRTVAAPSVFIFPPSDEQLKSGTASVVCLLNNFYPREAKVQWKVDNALQSGNSQESVTEQDSKDSTYSLSSTLTLSKADYEKHKVYACEVTHQGLSSPVTKSFNRGEC
Take B10: the “IL-13 Neutralization Assay IC50” value with Recombinant Human IL-13 [1] was determined as 0.078 nM.

B11: DVD3158 (bispecific antibody, IgG1)
VH: EVQLVQSGAEVKKPGASVKVSCKASGYTFTSYWMHWVRQAPGQGLEWIGNINPKGGSNIYNEKFQGRVTMTRDTSISTAYMELSRLRSDDTAVYYCARLDYFGDSFDLWGQGTTVTVSSGGGGSGGGGSEVQLVESGGGLVQPGGSLRLSCAASGFTFSNYGVEWVRQAPGKGLEWVSGIWADGSTHYADTVKSRFTISRDNSKNTLYLQMNSLRAEDTAVYYCAREWQHGPVAYWGQGTLVTVSS
VL: DIQMTQSPSSLSASVGDRVTITCRASQGIRNYLNWYQQKPGKAPKLLIYYASNLEVGVPSRFSGSGSGTDYTLTISSLQPEDFATYYCQQDNRFPYTFGGGTKVEIKRGGSGGGGSGDIQMTQSPSSLSASVGDRVTITCKASQLVSSAVAWYQQKPGKAPKLLIYWASTLHTGVPSRFSGSGSGTDFTLTISSLQPEDFATYYCQQHYRTPFTFGQGTKLEIKR
notes: as for B3
In the case of B11, in the experiment with Recombinant Human IL-13 [2], the Kd was 0.057 nM, the koff was 6.7e-05 s⁻¹ and the on-rate constant (kon) worked out at 1.2e+06 M⁻¹ s⁻¹.

B12: DVD2691 (bispecific antibody, human IgG1, kappa)
heavy: not shown
light: DIQMTQSPSSLSASVGDRVTISCRASQDIRNYLNWYQQKPGKAPKLLIFYTSKLHSGVPSRFSGSGSGTDYTLTISSLQPEDIATYYCQQGLTPPLTFGGGTKVEIKRTVAAPSVFIFPPDIQMTQSPSSLSASVGDRVTITCRASQLVSSAVAWYQQKPGKAPKLLIYWASARHTGVPSRFSGSGSGTDFTLTISSLQPEDFATYYCQQHYKTPFTFGQGTKLEIKRTVAAPSVFIFPPSDEQLKSGTASVVCLLNNFYPREAKVQWKVDNALQSGNSQESVTEQDSKDSTYSLSSTLTLSKADYEKHKVYACEVTHQGLSSPVTKSFNRGEC
Regarding B12, the “IL-13 Neutralization Assay IC50” value in the experiment with Recombinant Human IL-13 [1] amounted to 0.105 nM.

B13: DVD2741 (bispecific antibody, human IgG1, kappa)
heavy: not shown
light: B12 light with R144K, A173T, R174L, K213R
In the case of B13, the “IL-13 Neutralization Assay IC50” value with Recombinant Human IL-13 [1] was found to be 0.118 nM.

B14: DVD2788 (bispecific antibody, human IgG1, kappa)
heavy: not shown
light: DIQMTQSPSSLSASVGDRVTISCRASQDIRNYLNWYQQKPGKAPKLLIFYTSKLHSGVPSRFSGSGSGTDYTLTISSLQPEDIATYYCQQGLTPPLTFGGGTKVEIKRGGSGGGGSGDIQMTQSPSSLSASVGDRVTITCRASQDISQYLNWYQQKPGKAPKLLIYYTSRLQSGVPSRFSGSGSGTDFTLTISSLQPEDFATYFCQQGNTWPPTFGQGTKLEIKRTVAAPSVFIFPPSDEQLKSGTASVVCLLNNFYPREAKVQWKVDNALQSGNSQESVTEQDSKDSTYSLSSTLTLSKADYEKHKVYACEVTHQGLSSPVTKSFNRGEC
Turning to B14, the “IL-13 Neutralization Assay IC50” value with Recombinant Human IL-13 [1] stood at 0.072 nM.

B15: DVD2791 (bispecific antibody, human IgG1, kappa)
heavy: not shown
light: DIQMTQSPSSLSASVGDRVTISCRASQDIRNYLNWYQQKPGKAPKLLIFYTSKLHSGVPSRFSGSGSGTDYTLTISSLQPEDIATYYCQQGLTPPLTFGGGTKVEIKRTVAAPSVFIFPPDIQMTQSPSSLSASVGDRVTITCRASQDISQYLNWYQQKPGKAPKLLIYYTSRLQSGVPSRFSGSGSGTDFTLTISSLQPEDFATYFCQQGNTWPPTFGQGTKLEIKRTVAAPSVFIFPPSDEQLKSGTASVVCLLNNFYPREAKVQWKVDNALQSGNSQESVTEQDSKDSTYSLSSTLTLSKADYEKHKVYACEVTHQGLSSPVTKSFNRGEC
Regarding B15, the “IL-13 Neutralization Assay IC50” value with Recombinant Human IL-13 [1] was 0.245 nM.

For the origin of these results see patent publication US20140271457A1 (AbbVie / Abbott, published 2014).
